Usually IC50 stands for the point on the concentration scale where inhibition reaches its midpoint. A low value points to higher potency. In general, Kd refers to the equilibrium constant for the complex coming apart. A lower Kd goes with higher affinity. As a reminder, the EC50 is the concentration at which the effect is half-maximal. Read a high EC50 as a need for much substance.

Data on five molecules can be found in US20220325000A1 (SUZHOU ALPHAMAB, published 2022).

Experiment [1] addresses T1, hTFPI antigen (human).
T1 construct: Self-made hTFPI used in the hybridoma screens; It may be the same protein as hTFPI161; also called human TFPI; hTFPD
Briefly: competitive ELISA, FXa coated (competitor), supernatant diluted 100x. On the procedure:
(§1) Coat with 2μg/mL FXA Protease (Neb, batch No. 0941404), after blocking with BSA, the same diluted supernatant of TFPI hybridoma cells and 50 ng/mL hTFPD (batch No. TE20140825, self-made) were added for complete incubation, followed by 1:1500 diluted mouse THETM His Tag Antibody [HRP] mAb (GenScript, batch No. 14C000744), after development by TMB, 1 M H2SO4 stop solution was added to stop developing and the value was read on the microplate reader. Using 650 nm as the reference wavelength, the OD values were read at 450 nm and 650 nm. […] The lower the OD value, the better the inhibition of the anti-TFPI antibody.
(§2) Afterwards, the supernatant of 31 7G6 subcloned cells was performed with the inhibition experiment at different dilution ratios, and the experimental method was the same as 1.2.

Experiment [2] concerns the target T1, hTFPI antigen. Briefly: ELISA, subclone supernatant, hTFPI, OD450. On the technique in general: An ELISA detects its analyte on a solid surface through an enzyme-linked reagent.
In experiment [3] the target is T1, hTFPI antigen. The experiment is described as follows: competitive ELISA, FXa coated (competitor), supernatant diluted 10x. On the procedure:
as §1, §2

Experiment [4] has as its target T2, hTFPI161-Chis (human, UniProt P10646 29-189, limits assumed).
T2 construct: also called human TFPI; not shown: C-terminal His tag ('Chis')
T2 sequence (looked up): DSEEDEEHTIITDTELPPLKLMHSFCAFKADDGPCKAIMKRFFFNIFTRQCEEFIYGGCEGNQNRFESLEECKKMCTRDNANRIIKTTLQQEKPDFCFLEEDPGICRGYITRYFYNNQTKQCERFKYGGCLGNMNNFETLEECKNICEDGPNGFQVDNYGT
The experiment is described as follows: competitive ELISA, FXa coated (competitor), 50 ng/mL hTFPI161, anti-His-HRP, four-parameter fit. As to the method:
FXa Protease was coated on the plate at 0.2 μg/well overnight at 4° C., after blocking with BSA, the gradient dilution series of hu7G6 antibody protein obtained from the above example was added at 100 uL/well (50 ng/mL hTFPI161 was contained in the dilution), and the reaction was carried out at room temperature for 1 hour. After washing, 1:1500 diluted Mouse THETM His Tag Antibody [HRP] mAb was added, and the reaction was carried out at room temperature for 1 hour. After washing, the development solution was added, and the absorbance was read at the wavelength of 450/650 nm.
The software SotfMax Pro v5.4 was applied for data processing and mapping analysis, using four-parameter fitting, the inhibition curve of h7G6 antibody for FXa-TFPI and EC50 value were obtained. The results were shown in FIG. 3, in which the ordinate was OD450 and the abscissa is the concentration of h7G6 antibody protein (ng/mL); and Hu7G62-v2 antibody protein was effective in inhibiting the interaction between FXA and TFPI.

Experiment [5] addresses T2, hTFPI161-Chis. The experiment is described as follows: BLI, antibody on Protein A biosensor, hTFPI161-Chis 1.875-30 nM, 1:1 model; batch 180727DS. On the procedure: (§3) In this experiment, the affinity of h7G6 for human TFPI was detected based on Bio-Layer Interferometry (BLI) technology. K2 instrument of Fortibio was used. Firstly, KN057 was diluted to […] and immobilized on Protein A biosensor (model 18-5010), then hTFPI161-Chis was diluted to 30 nM, 15 nM, 7.5 nM, 3.75 nM and 1.875 nm to combine with h7G6, respectively, and the binding signals with different intensities could be detected. The results were fitted using 1:1 model to calculate the equilibrium constant (KD) of the sample.

Experiment [6] addresses T2, hTFPI161-Chis. Briefly: BLI, antibody on Protein A biosensor, hTFPI161-Chis 1.875-30 nM, 1:1 model; mean of three batches; average of three batches. On the procedure: as §3
Experiment [7] concerns the target T2, hTFPI161-Chis. Briefly: ELISA, hTFPI161 coated, anti-human IgG4-HRP, four-parameter fit. On the procedure: hTFPI161 protein was coated on the plate at 0.5 μg/well overnight at 4° C. After washing, the gradient dilution series of h7G6 antibody protein obtained in the above example was added, and incubated at 25° C±2° C. for 2 h. After washing, 1:2000 diluted Mouse Anti-Human IgG4 pFc′ antibody [HP 6023] (HRP) was added at 100 μL/well, and incubated at 25° C.±2° C. for 2 h. After washing, the development solution was added, and the absorbance was read at the wavelength of 450/650 nm. The software SotfMax Pro v5.4 was applied for data processing and mapping analysis, using four-parameter fitting, the binding curve of h7G6 antibody to hTFPI161 and EC50 value were obtained, which reflects the affinity of the antibody for hTFPI161.

Experiment [8] concerns the target T2, hTFPI161-Chis. Briefly: BLI, antibody on Protein A biosensor, hTFPI161-Chis 1.875-30 nM, 1:1 model; batch 180820DS. As to the method:
as §3

B1: TFPI-7G6-1C12 (antibody, V domains shown)
VH: QVQLQQSGAELARPGASVKLSCKASGYSFTSYGISWVKQRTGQGLEWIGEIYPRSTNTYYNEKFMGKATLTADKSSSTAFMELRSLTSEDSAVYFCARESFYGDYGAMDFWGQGASVTVSS
VL: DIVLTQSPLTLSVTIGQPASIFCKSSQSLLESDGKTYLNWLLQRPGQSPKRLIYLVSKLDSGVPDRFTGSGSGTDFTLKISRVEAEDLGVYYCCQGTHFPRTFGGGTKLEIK
notes: Subclone supernatant
In the case of B1, the Inhibition % in experiment [1] worked out at 57.9%; in experiment [3] it was 95.2%. In addition, in experiment [2], the OD amounted to 1.24.

B2: TFPI-7G6-5A10 (antibody, V domains shown)
VH: B1 VH
VL: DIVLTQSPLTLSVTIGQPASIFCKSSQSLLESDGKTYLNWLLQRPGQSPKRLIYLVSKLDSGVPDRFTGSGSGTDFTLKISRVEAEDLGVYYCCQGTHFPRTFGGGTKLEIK
notes: Subclone supernatant
For the molecule B2, the Inhibition % was 62.1% in experiment [1] and 95.9% in experiment [3]. Besides, the OD in experiment [2] came out at 1.25.

B3: TFPI-7G6-2G8 (antibody, V domains shown)
VH: B1 VH
VL: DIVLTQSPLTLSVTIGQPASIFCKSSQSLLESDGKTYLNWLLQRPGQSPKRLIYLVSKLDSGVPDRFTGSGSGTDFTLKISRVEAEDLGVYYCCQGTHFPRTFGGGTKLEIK
notes: Subclone supernatant
Regarding B3, the Inhibition % was 62.7% in experiment [1] and 95.9% in experiment [3]. The same molecule displayed an OD in experiment [2] of 1.27.

B4: TFPI-7G6-5F11 (antibody, V domains shown)
VH: B1 VH
VL: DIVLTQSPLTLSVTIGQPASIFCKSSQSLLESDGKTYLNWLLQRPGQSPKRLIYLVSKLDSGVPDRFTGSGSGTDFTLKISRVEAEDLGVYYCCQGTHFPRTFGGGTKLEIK
notes: Subclone supernatant
Take B4: the Inhibition % in experiment [1] stood at 55%; in experiment [3] it was 95.1%. The OD in experiment [2] was found to be 1.35.

B5: Hu7G62-v2 (antibody, human IgG4 S228P, kappa, V domains shown)
VH: QVQLVQSGAEVKKPGASVKVSCKASGYSFTSYGISWVKQAPGQGLEWIGEIYPRSTNTYYNEKFMGKATLTADKSSSTAYMELSSLRSEDTAVYYCARESFYGDYGAMDFWGQGTLVTVSS
VL: DIVMTQSPLSLPVTPGEPASISCKSSQSLLESDGKTYLNWYLQKPGQSPQLLIYLVSKLDSGVPDRFSGSGSGTDFTLKISRVEAEDVGVYYCSQGTHFPRTFGQGTKVEIKR
notes: also called hu7G6-2v2-G4ws; h7G6 antibody
In experiment [4], B5 showed an IC50 of 0.222 µg/mL. Moreover, the Kd was 1.32 nM in experiment [5], 1.37 nM in experiment [6] and 1.47 nM in experiment [8]. Besides, in experiment [7], a half-maximal response (EC50) required 0.0419 µg/mL.
